Assay [1] concerns the target phosphorylated HemRFL (full-length HemR) (Leptospira biflexa). The assay can be described thus: SEC. Background: Size exclusion chromatography separates by hydrodynamic size, large species first.
The target of assay [2] is phosphorylated HemRREC (phospho-receiver domain of HemR) (Leptospira biflexa). The assay can be described thus: SEC.

As for “phosphorylated HemRFL (full-length HemR) (natural protein)”, the stoichiometry N (commonly a count of units in the complex or per binding partner) in assay [1] was 2.

Take “phosphorylated HemRREC (phospho-receiver domain of HemR) (domain or fragment)”: the stoichiometry N in assay [2] is 2.

The values are drawn from doi:10.1101/2023.10.19.563136.
